# Results published in the supplement of paper PMC10724198.
# ± gives the standard deviation of the averaged measurements.
# Tested on: Saccharomyces cerevisiae
# Experiment: protein stability index of tFT-peptide fusion (C-terminal peptide) (PSI (0-1 scale)); higher = more stable (slower turnover)
# Conditions: genetic background: wild type; temperature: 30 C
# 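Also: PSI is a weighted mean of sequencing reads over stability bins, variants kept only with over 10 reads, mCherry proximal and sfGFP distal, peptide attached via GGGS linker.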
row,Sequence,protein stability index
1,PPPPLPPIRPYP,0.719 ± 0.016
2,PPPPLPPQPPPP,0.654 ± 0.0073
3,PPPPLPPTPPPL,0.673 ± 0.025
4,PPPPPAPPPQPS,0.699 ± 0.011
5,PPPPPFSPLFLP,0.698 ± 0.12
6,PPPPPHSSPFRS,0.694 ± 0.01
7,PPPPPHTPPPYP,0.766 ± 0.05
8,PPPPPIPPPLVP,0.658 ± 0.012
9,PPPPPLPPLPTP,0.693 ± 0.022
10,PPPPPLPPPSPP,0.598 ± 0.036
11,PPPPPLRVPPPP,0.6753 ± 0.004
12,PPPPPPAFPPST,0.716 ± 0.027
13,PPPPPPLITPPL,0.666 ± 0.052
14,PPPPPPLLPSPL,0.705 ± 0.069
15,PPPPPPLPPPLP,0.704 ± 0.056
16,PPPPPPLPPSPL,0.634 ± 0.1
17,PPPPPPPASLLP,0.755 ± 0.056
18,PPPPPPPFRPPT,0.651 ± 0.017
19,PPPPPPPLPLPP,0.64 ± 0.011
20,PPPPPPPLPRSP,0.721 ± 0.039
21,PPPPPPPPAPFP,0.687 ± 0.056
22,PPPPPPPPPLPR,0.657 ± 0.039
23,PPPPPPPPPQPS,0.67 ± 0.08

row,Sequence,protein stability index
1,PPPPPPPPSPSP,0.742 ± 0.074
2,PPPPPPPTPIHP,0.72 ± 0.01
3,PPPPPPRPFPPP,0.66 ± 0.085
4,PPPPPPSVLSPP,0.722 ± 0.061
5,PPPPPPTPPPCL,0.694 ± 0.057
6,PPPPPRFSPHPP,0.695 ± 0.013
7,PPPPPRLPPRPP,0.6152 ± 0.0052
8,PPPPPRPPLSPP,0.725 ± 0.03
9,PPPPPSLACPPP,0.688 ± 0.037
10,PPPPPSPPLSPI,0.728 ± 0.063
11,PPPPRAISPLLP,0.666 ± 0.031
12,PPPPRPLKLFPP,0.588 ± 0.014
13,PPPPRPLPPAPP,0.63 ± 0.075
14,PPPPRPPHLSPP,0.7006 ± 0.0067
15,PPPPRPPRPYSV,0.767 ± 0.27
16,PPPPRPSPSIYP,0.732 ± 0.018
17,PPPPRRPPPAPF,0.6935 ± 0.0022
18,PPPPRSLPLLPP,0.67 ± 0.073
19,PPPPSPRLSHSP,0.646 ± 0.018
20,PPPPYPPHPPSA,0.712 ± 0.027
21,PPPQDPTRRRRP,0.7116 ± 0.0054
22,PPPQPPPRHSPP,0.676 ± 0.031
23,PPPQSFLPRPPH,0.713 ± 0.0062

row,Sequence,protein stability index
1,PPPRLPTSPDSP,0.722 ± 0.061
2,PPPRLSPTPSSR,0.721 ± 0.05
3,PPPRLTVPIPSS,0.6477 ± 0.0054
4,PPPRPDLTVGQP,0.654 ± 0.04
5,PPPRPLSPPFPF,0.641 ± 0.05
6,PPPRPPASLPSL,0.5833 ± 0.0033
7,PPPRPPPFPLSC,0.7134 ± 0.0065
8,PPPRPPSPPSFL,0.734 ± 0.041
9,PPPRRAPLSPSV,0.669 ± 0.042
10,PPPRSPLLPSPL,0.687 ± 0.019
11,PPPRSPPAPPPP,0.774 ± 0.052
12,PPPRSSLRLPSA,0.652 ± 0.063
13,PPPRTPPDNHPN,0.7256 ± 0.0047
14,PPPSAPLPPSPP,0.6424 ± 0.0043
15,PPPSPNPRENPK,0.671 ± 0.0071
16,PPPSPPCTPSLI,0.696 ± 0.036
17,PPPSPPPSLSLP,0.702 ± 0.025
18,PPPSPSPPPAPG,0.6941 ± 0.006
19,PPPSPSSPPLSL,0.717 ± 0.099
20,PPPSSAPPPTPP,0.607 ± 0.15
21,PPPSSPSPPRCR,0.733 ± 0.1
22,PPPTSSPSPSIL,0.741 ± 0.07
23,PPPVLPSPRSDP,0.667 ± 0.17

row,Sequence,protein stability index
1,PPPVPPPAPLLS,0.642 ± 0.074
2,PPPVPPSPSPPP,0.684 ± 0.013
3,PPPWPLPPGRLP,0.703 ± 0.059
4,PPPYHPDATFTT,0.7063 ± 0.0025
5,PPQPRLTPSPPL,0.697 ± 0.028
6,PPRASQSLLAVP,0.6555 ± 0.0035
7,PPRATPPFPLPP,0.648 ± 0.031
8,PPRLPPLPSSLL,0.721 ± 0.033
9,PPRPAPPPPPAL,0.723 ± 0.11
10,PPRPHPPPRPSS,0.74 ± 0.048
11,PPRPLRAEGLES,0.727 ± 0.028
12,PPRPPPLPPSPP,0.685 ± 0.094
13,PPRPPPLSPAPP,0.7 ± 0.069
14,PPRPPPPPRSTS,0.672 ± 0.024
15,PPRPPSPPPPPS,0.779 ± 0.16
16,PPRPSPPPPPRS,0.735 ± 0.09
17,PPRRLPALPSPL,0.774 ± 0.014
18,PPRRSDSQQFSA,0.676 ± 0.029
19,PPRSLPPPPFPF,0.749 ± 0.01
20,PPRSLPPSPPSP,0.7384 ± 0.0047
21,PPRSPPLPPAPT,0.762 ± 0.013
22,PPRSPPLPPGLP,0.558 ± 0.039
23,PPRSPPPPRLLL,0.724 ± 0.048

row,Sequence,protein stability index
1,PPRSRPLPALPS,0.647 ± 0.044
2,PPRYLCLGPGPC,0.691 ± 0.03
3,PPSGGYFSTCPP,0.731 ± 0.03
4,PPSKRSKKPFRI,0.698 ± 0.022
5,PPSLLFPLPLAS,0.649 ± 0.11
6,PPSLPPPPPVHP,0.648 ± 0.034
7,PPSLPRFTPRPA,0.718 ± 0.036
8,PPSLPSVRLSLS,0.685 ± 0.027
9,PPSLRPSSSPPI,0.724 ± 0.022
10,PPSLSPFSACLS,0.669 ± 0.064
11,PPSNPLTRAQCL,0.737 ± 0.14
12,PPSPDPPPPDLS,0.649 ± 0.017
13,PPSPEPGSPHRF,0.734 ± 0.018
14,PPSPHLVPYYLP,0.677 ± 0.014
15,PPSPLLVTLPPA,0.704 ± 0.022
16,PPSPPFDFSPQN,0.716 ± 0.014
17,PPSPPHPIRPPA,0.713 ± 0.025
18,PPSPPIPPPPAP,0.732 ± 0.053
19,PPSPPPGTCPPD,0.617 ± 0.064
20,PPSPPPPAPPRA,0.713 ± 0.023
21,PPSPPPPLSLSP,0.6853 ± 0.0033
22,PPSPPPPPPPPL,0.7 ± 0.032
23,PPSPSNPNPLRP,0.726 ± 0.019

row,Sequence,protein stability index
1,PPSPSSLLFLLS,0.7043 ± 0.0028
2,PPSPTPPALPAP,0.688 ± 0.018
3,PPSRPLPFLLPH,0.696 ± 0.0091
4,PPSSDRPSIILP,0.691 ± 0.081
5,PPSSPPSVLPPV,0.666 ± 0.021
6,PPSSTAALPPLP,0.609 ± 0.066
7,PPSVTLSEMTTG,0.642 ± 0.025
8,PPSWASLRLPPT,0.708 ± 0.072
9,PPTFPPLLSPPP,0.661 ± 0.025
10,PPTIPLRTLPTS,0.703 ± 0.018
11,PPTPKHTPHDTT,0.694 ± 0.031
12,PPTPLAASPRPS,0.722 ± 0.12
13,PPTPPSLPPLSP,0.665 ± 0.086
14,PPTPPTSHPSPR,0.696 ± 0.027
15,PPTPTPPHPPPP,0.611 ± 0.015
16,PPVKQKEKGTAT,0.701 ± 0.021
17,PPVPPPPRLPRP,0.727 ± 0.019
18,PPWPPLVQPVSL,0.708 ± 0.066
19,PPYRVVLPLFVP,0.508 ± 0.033
20,PPYSQPSSTPPH,0.706 ± 0.092
21,PQDRGICQIIES,0.632 ± 0.017
22,PQDYITTCQHPT,0.651 ± 0.079
23,PQFRHFWALSTT,0.707 ± 0.015

row,Sequence,protein stability index
1,PQPLFLPSPLSR,0.702 ± 0.06
2,PQPLYAPFPPPL,0.789 ± 0.096
3,PQPPPPPPLSVS,0.673 ± 0.0087
4,PQPPRPARLCFP,0.705 ± 0.028
5,PQRTPPRPNKPP,0.556 ± 0.013
6,PQSCNILRGLES,0.708 ± 0.056
7,PRACPSSPASSL,0.722 ± 0.024
8,PRALPSPPPPPP,0.661 ± 0.13
9,PRAPHATGYNRR,0.7016 ± 0.0069
10,PRAPPLPPSPSP,0.668 ± 0.011
11,PRARHSVPNIQS,0.694 ± 0.042
12,PRGAVGSRPAGR,0.677 ± 0.034
13,PRGTFARSRSTG,0.7156 ± 0.0027
14,PRGYRGNCAYDV,0.636 ± 0.083
15,PRHPPTHLIPKT,0.615 ± 0.034
16,PRLAPLTLLPPS,0.7051 ± 0.0027
17,PRLPPPPHPSRP,0.698 ± 0.031
18,PRNTPPRRAPTR,0.6485 ± 0.0031
19,PRPAPGGSPALT,0.689 ± 0.083
20,PRPAPLPAPPPS,0.679 ± 0.029
21,PRPISLFPLPPP,0.693 ± 0.057
22,PRPLPPPPAFLP,0.766 ± 0.08
